We go through five molecules from US20220406376A1 (MacroGenics, published 2022).

For experiment [1], the target named is T1, HER2/neu on the surface of target cells (N87, JIMT-1, MCF-7, MDA-MB231) (UniProt P04626 23-1255, limits assumed).
T1 construct: whole, on cells
The experiment is described as follows: flow cytometry on N87 gastric cancer cells, anti-hFc APC MFI.

In experiment [2] the target is T2, CD137 on the surface of cells (activated human T cells; engineered CHO cells) (human, UniProt Q07011 24-255).
T2 construct: whole, on cells; also called human CD137; cell surface expressed CD137
T2 sequence (Q07011 24-255, change not shown): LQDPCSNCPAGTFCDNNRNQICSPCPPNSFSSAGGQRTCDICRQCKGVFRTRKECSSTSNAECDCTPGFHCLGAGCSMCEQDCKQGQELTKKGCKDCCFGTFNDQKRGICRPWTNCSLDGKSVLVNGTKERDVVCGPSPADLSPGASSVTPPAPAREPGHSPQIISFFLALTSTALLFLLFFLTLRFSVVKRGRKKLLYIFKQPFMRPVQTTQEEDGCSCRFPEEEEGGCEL
The experiment can be described thus: flow cytometry on activated pan T cells gated CD8, anti-hFc APC MFI. Background: A flow cytometer gives signals particle by particle.

B1: DART-2 (bispecific antibody)
chain 1: not shown
chain 2: SYELTQPPSVSVSPGQTASITCSGDNIGDQYAHWYQQKPGQSPVLVIYQDKNRPSGIPERFSGSNSGNTATLTISGTQAMDEADYYCATYTGFGSLAVFGGGTKLTVLGGGSGGGGQVQLVQSGAEVKKPGASVKVSCKASGYTFTNYGMNWVRQAPGQGLEWMGWINTNIGEPTYTEEFKGRVTMTRDTSISTAYMELSRLRSDDTAVYYCARDDGYGNRVSYWGQGTLVTVSSGGCGGGKVAACKEKVAALKEKVAALKEKVAALKE
As usually defined, the EC50 (read off the curve) is the concentration at which the effect is half-maximal. In the case of B1, the half-maximal effective concentration (EC50 (read off the curve)) in experiment [1] is around 0.4 nM.

B2: DART-F (bispecific antibody, human IgG1, kappa, L234A L235A)
heavy: QVQLVQSGAEVKKPGASVKVSCKASGYTFTNYGMNWVRQAPGQGLEWMGWINTNIGEPTYTEEFKGRVTMTRDTSISTAYMELSRLRSDDTAVYYCARDDGYGNRVSYWGQGTLVTVSSASTKGPSVFPLAPSSKSTSGGTAALGCLVKDYFPEPVTVSWNSGALTSGVHTFPAVLQSSGLYSLSSVVTVPSSSLGTQTYICNVNHKPSNTKVDKRVEPKSCDKTHTCPPCPAPEAAGGPSVFLFPPKPKDTLMISRTPEVTCVVVDVSHEDPEVKFNWYVDGVEVHNAKTKPREEQYNSTYRVVSVLTVLHQDWLNGKEYKCKVSNKALPAPIEKTISKAKGQPREPQVYTLPPSREEMTKNQVSLSCAVKGFYPSDIAVEWESNGQPENNYKTTPPVLDSDGSFFLVSKLTVDKSRWQQGNVFSCSVMHEALHNRYTQKSLSLSPGK
light: DIQMTQSPSSLSASVGDRVTITCKASQDISNYLSWFQQKPGKAPKTLIYRANRLQSGVPSRFSGSGSGTDFTLTISSLQPEDFATYYCLQHDEFPWTFGQGTKLEIKRTVAAPSVFIFPPSDEQLKSGTASVVCLLNNFYPREAKVQWKVDNALQSGNSQESVTEQDSKDSTYSLSSTLTLSKADYEKHKVYACEVTHQGLSSPVTKSFNRGEC
chain 1: QVQLVQSGAEVKKPGASVKVSCKASGYTFTNYGMNWVRQAPGQGLEWMGWINTNIGEPTYTEEFKGRVTMTRDTSISTAYMELSRLRSDDTAVYYCARDDGYGNRVSYWGQGTLVTVSSASTKGPSVFPLAPSSKSTSGGTAALGCLVKDYFPEPVTVSWNSGALTSGVHTFPAVLQSSGLYSLSSVVTVPSSSLGTQTYICNVNHKPSNTKVDKRVEPKSCDKTHTCPPCPAPEAAGGPSVFLFPPKPKDTLMISRTPEVTCVVVDVSHEDPEVKFNWYVDGVEVHNAKTKPREEQYNSTYRVVSVLTVLHQDWLNGKEYKCKVSNKALPAPIEKTISKAKGQPREPQVYTLPPSREEMTKNQVSLWCLVKGFYPSDIAVEWESNGQPENNYKTTPPVLDSDGSFFLYSKLTVDKSRWQQGNVFSCSVMHEALHNHYTQKSLSLSPGGGGSGGGSGGGDIQMTQTTSSLSASLGDRVTISCRASQDISNYLNWYQQKPDGTVKLLIYYTSRLHSGVPSRFSGSGSGTDYSLTISNLEQEDIATYFCQQGNTLPYTFGGGTKLEIKGGGSGGGGQVQLQQPGAELVRPGASVKLSCKASGYTFTSYWINWVKQRPGQGLEWIGNIYPSDSYTNYDQKFKDKATLTVDKSSSTAYMQLSSPTSEDSAVYYCTKSGEYGKIGYYAMDYWGQGTSVTVSSGGCGGGEVAALEKEVAALEKEVAALEKEVAALEK
chain 2: DIQMTQTTSSLSASLGDRVTISCRASQDISNYLNWYQQKPDGTVKLLIYYTSRLHSGVPSRFSGSGSGTDYSLTISNLEQEDIATYFCQQGNTLPYTFGGGTKLEIKGGGSGGGGQVQLQQPGAELVRPGASVKLSCKASGYTFTSYWINWVKQRPGQGLEWIGNIYPSDSYTNYDQKFKDKATLTVDKSSSTAYMQLSSPTSEDSAVYYCTKSGEYGKIGYYAMDYWGQGTSVTVSSGGCGGGKVAALKEKVAALKEKVAALKEKVAALKE
For the molecule B2, the half-maximal effective concentration (EC50 (read off the curve)) in experiment [2] and in experiment [1] was around 0.5 nM each time.

B3: DART-4 (bispecific antibody, human IgG1, kappa, L234A L235A)
heavy: B2 heavy
light: B2 light
chain 1: QVQLVQSGAEVKKPGASVKVSCKASGYTFTNYGMNWVRQAPGQGLEWMGWINTNIGEPTYTEEFKGRVTMTRDTSISTAYMELSRLRSDDTAVYYCARDDGYGNRVSYWGQGTLVTVSSASTKGPSVFPLAPSSKSTSGGTAALGCLVKDYFPEPVTVSWNSGALTSGVHTFPAVLQSSGLYSLSSVVTVPSSSLGTQTYICNVNHKPSNTKVDKRVEPKSCDKTHTCPPCPAPEAAGGPSVFLFPPKPKDTLMISRTPEVTCVVVDVSHEDPEVKFNWYVDGVEVHNAKTKPREEQYNSTYRVVSVLTVLHQDWLNGKEYKCKVSNKALPAPIEKTISKAKGQPREPQVYTLPPSREEMTKNQVSLWCLVKGFYPSDIAVEWESNGQPENNYKTTPPVLDSDGSFFLYSKLTVDKSRWQQGNVFSCSVMHEALHNHYTQKSLSLSPGGGGSGGGSGGGEIVLTQSPATLSLSPGERATLSCRASQSVSSYLAWYQQKPGQAPRLLIYDASNRATGIPARFSGSGSGTDFTLTISSLEPEDFAVYYCQQRSNWPPALTFGGGTKVEIKGGGSGGGGQVQLQQWGAGLLKPSETLSLTCAVYGGSFSGYYWSWIRQSPEKGLEWIGEINHGGYVTYNPSLESRVTISVDTSKNQFSLKLSSVTAADTAVYYCARDYGPGNYDWYFDLWGRGTLVTVSSGGCGGGEVAALEKEVAALEKEVAALEKEVAALEK
chain 2: EIVLTQSPATLSLSPGERATLSCRASQSVSSYLAWYQQKPGQAPRLLIYDASNRATGIPARFSGSGSGTDFTLTISSLEPEDFAVYYCQQRSNWPPALTFGGGTKVEIKGGGSGGGGQVQLQQWGAGLLKPSETLSLTCAVYGGSFSGYYWSWIRQSPEKGLEWIGEINHGGYVTYNPSLESRVTISVDTSKNQFSLKLSSVTAADTAVYYCARDYGPGNYDWYFDLWGRGTLVTVSSGGCGGGKVAALKEKVAALKEKVAALKEKVAALKE
Regarding B3, in experiment [2], the “EC50 (read off the curve)” value is around 0.3 nM.

B4: DART-5 (bispecific antibody, human IgG1, kappa, L234A L235A)
heavy: B2 heavy
light: B2 light
chain 1: QVQLVQSGAEVKKPGASVKVSCKASGYTFTNYGMNWVRQAPGQGLEWMGWINTNIGEPTYTEEFKGRVTMTRDTSISTAYMELSRLRSDDTAVYYCARDDGYGNRVSYWGQGTLVTVSSASTKGPSVFPLAPSSKSTSGGTAALGCLVKDYFPEPVTVSWNSGALTSGVHTFPAVLQSSGLYSLSSVVTVPSSSLGTQTYICNVNHKPSNTKVDKRVEPKSCDKTHTCPPCPAPEAAGGPSVFLFPPKPKDTLMISRTPEVTCVVVDVSHEDPEVKFNWYVDGVEVHNAKTKPREEQYNSTYRVVSVLTVLHQDWLNGKEYKCKVSNKALPAPIEKTISKAKGQPREPQVYTLPPSREEMTKNQVSLWCLVKGFYPSDIAVEWESNGQPENNYKTTPPVLDSDGSFFLYSKLTVDKSRWQQGNVFSCSVMHEALHNHYTQKSLSLSPGGGGSGGGSGGGSYELTQPPSVSVSPGQTASITCSGDNIGDQYAHWYQQKPGQSPVLVIYQDKNRPSGIPERFSGSNSGNTATLTISGTQAMDEADYYCATYTGFGSLAVFGGGTKLTVLGGGSGGGGEVQLVQSGAEVKKPGESLRISCKGSGYSFSTYWISWVRQMPGKGLEWMGKIYPGDSYTNYSPSFQGQVTISADKSISTAYLQWSSLKASDTAMYYCARGYGIFDYWGQGTLVTVSSGGCGGGEVAALEKEVAALEKEVAALEKEVAALEK
chain 2: SYELTQPPSVSVSPGQTASITCSGDNIGDQYAHWYQQKPGQSPVLVIYQDKNRPSGIPERFSGSNSGNTATLTISGTQAMDEADYYCATYTGFGSLAVFGGGTKLTVLGGGSGGGGEVQLVQSGAEVKKPGESLRISCKGSGYSFSTYWISWVRQMPGKGLEWMGKIYPGDSYTNYSPSFQGQVTISADKSISTAYLQWSSLKASDTAMYYCARGYGIFDYWGQGTLVTVSSGGCGGGKVAALKEKVAALKEKVAALKEKVAALKE
B4: the “EC50 (read off the curve)” value in experiment [1] was around 0.5 nM.

B5: DART-1 (bispecific antibody)
chain 1: not shown
chain 2: EIVLTQSPATLSLSPGERATLSCRASQSVSSYLAWYQQKPGQAPRLLIYDASNRATGIPARFSGSGSGTDFTLTISSLEPEDFAVYYCQQRSNWPPALTFGGGTKVEIKGGGSGGGGQVQLVQSGAEVKKPGASVKVSCKASGYTFTNYGMNWVRQAPGQGLEWMGWINTNIGEPTYTEEFKGRVTMTRDTSISTAYMELSRLRSDDTAVYYCARDDGYGNRVSYWGQGTLVTVSSGGCGGGKVAACKEKVAALKEKVAALKEKVAALKE
Regarding B5, the concentration giving a half-maximal response (EC50 (read off the curve)) in experiment [2] was around 0.1 nM; in experiment [1], around 0.4 nM.
